The chains are these.
B1: HDV Ribozyme (parent)
chain: GGCCGGCAUGGUCCCAGCCUCCUCGCUGGCGCCGGCUGGGCAACAUUCCGAGGGGACCGUCCCCUCGGUAAUGGCGAAUGGGACCCA

The series covers variants of B1. The series can be described thus: self-cleavage, relative activity (ratio to wild type); higher = more cleavage; co-transcriptional.
As for G25A G81C, the self-cleavage was determined as 0.258.
For the variant G25A G81U, the self-cleavage worked out at 0.112.
As to G25C C49U, the self-cleavage stood at 0.222.
In the case of G25C C49G it was 0.0594; in that of C26A C75A, 0.0415; in that of G25U G81A, 0.124.
To G25U G81C belongs 0.0923.
On to G25U G82A, for which the self-cleavage was found to be 0.0678.
In the case of G25U G82C it was 0.0755; in that of C26A A51C, 1.13; in that of C26A A51U, 1.08.
Consider C26A C33G, for which the self-cleavage stood at 0.317.
Consider C26A C33U, for which the self-cleavage was found to be 0.796.
In the case of C26A C33A it was 0.161; in that of G25C A71U, 0.19.
In the case of G25C A71C it was 0.0475; in that of G25C G68C, 0.0639; in that of G25C C33G, 0.201.
In the case of G25C C64A it was 0.203; in that of G25C C64U, 0.0369; in that of G25U C61G, 0.0978.
For G25U C61U, the self-cleavage turned out to be 0.163.
To C26A C49A belongs 1.11; to G25C U65C, 0.0536; to G25C C41A, 0.0898.
Take G25C C41U: the self-cleavage is 0.0707.
For G25A G52U, the self-cleavage was 0.169.
With G25U U27C, the self-cleavage was found to be 0.107.
On to G25C G52C, for which the self-cleavage amounted to 0.166.
To G25C G52U belongs 0.141; to G25C A56U, 0.178; to G25C A56C, 0.115.
For the variant G25C A56G, the self-cleavage came to 0.161.
In the case of C26A A70U, the self-cleavage turned out to be 1.23.
For the variant G25U C84G, the self-cleavage came out at 0.17.
In the case of G25U C84A it was 0.222; in that of G25U C84U, 0.262; in that of G25C G38A, 0.259.
To C26A G55A belongs 0.888.
G25A G74U: the self-cleavage is 0.0583.
To G25A G74A belongs 0.0767.
In the case of G25A G74C it was 0.163; in that of G25A G31U, 0.0536.
In the case of G25A G31A it was 0.0773.
On to C26A G59C, for which the self-cleavage came to 0.944.
On to C26A G59U, for which the self-cleavage was 1.12.
Consider C26A G53A, for which the self-cleavage was 0.845.
With G25C C75G, the self-cleavage is 0.185.
On to G25C C75U, for which the self-cleavage turned out to be 0.
Consider G25U G35U, for which the self-cleavage is 0.147.
In the case of G25A G68U it was 0.247.
On to G25A G68A, for which the self-cleavage amounted to 0.179.
Turning to G25C G54A, the self-cleavage worked out at 0.219.
Turning to G25C G54U, the self-cleavage was determined as 0.0652.
In the case of C26A G39C it was 0; in that of C26A G39A, 0.234.
To G25U A71C belongs 0.213; to G25U A71U, 0.0396.
In the case of G25C A45U it was 0.128; in that of G25C A45C, 0.0875.
Consider G25U U65A, for which the self-cleavage turned out to be 0.
G25U U65C: the self-cleavage is 0.237.
Regarding G25C A43C, the self-cleavage was determined as 0.0554.
For the variant G25A C58U, the self-cleavage turned out to be 0.248.
In the case of G25C A42G, the self-cleavage is 0.
Consider G25C A42U, for which the self-cleavage is 0.
To G25C A42C belongs 0.128; to C26A C57A, 1.02; to C26A C57G, 1.1.
Consider G25U G74A, for which the self-cleavage is 0.0707.
To G25U G74U belongs 0.0268; to G25U G74C, 0.0308; to G25U G38C, 0.0554.
In the case of G25U G38U it was 0.134.
G25U C62G: the self-cleavage was found to be 0.253.
In the case of G25U U46G it was 0.199; in that of G25U U46C, 0.
With G25U U46A, the self-cleavage came out at 0.0852.
To G25U C41A belongs 0.125; to C26A C41A, 1.17.
To C26A C48U belongs 0.941; to C26A G35A, 0.633; to G25C A51G, 0.237.
To G25A U60G belongs 0.125; to G25U C48G, 0.
Turning to C26A A78U, the self-cleavage stood at 0.269.
For the variant G25A G55A, the self-cleavage worked out at 0.193.
In the case of G25A G55U it was 0.128; in that of G25C G76A, 0.0875; in that of G25C G76C, 0.0723.
To G25C G76U belongs 0.0852; to G25U U47A, 0.161; to G25U U47C, 0.
Consider G25A G50C, for which the self-cleavage was 0.181.
To G25U C85U belongs 0.415; to G25A C33U, 0.0911.
C26A A43U: the self-cleavage is 0.527.
For the variant G25A A71U, the self-cleavage came out at 0.0369.
In the case of G25A A71C it was 0.185; in that of G25A C62A, 0.168; in that of G25U A70U, 0.0852.
To G25U A70G belongs 0.0875; to C26A C30G, 0.17.
On to C26A A42C, for which the self-cleavage is 0.227.
In the case of C26A A42G it was 0.665.
To G25C U27A belongs 0.175.
To G25A U27C belongs 0.538; to G25A U27G, 0.133; to G25U G54A, 0.086.
For the variant G25A U46G, the self-cleavage was found to be 0.262.
For G25A U46A, the self-cleavage stood at 0.
On to G25A U46C, for which the self-cleavage stood at 0.0831.
To G25U C49A belongs 0.175.
Take G25U C49U: the self-cleavage came out at 0.481.
In the case of G25U C49G, the self-cleavage worked out at 0.
Take C26A C62A: the self-cleavage stood at 1.15.
To G25A C26U belongs 0.339; to G25A C26A, 0.0852; to G25A C26G, 1.11.
To G25C G28A belongs 0.0297; to G25U G80A, 0.117; to G25U C26A, 0.217.
In the case of G25U A51G it was 0.266; in that of G25U A51C, 0.135; in that of G25U C32A, 0.105.
With G25U C32U, the self-cleavage was found to be 0.161.
For the variant G25U C32G, the self-cleavage was 0.0222.
To G25C U72A belongs 0.0791; to G25C U72C, 0.123.
As to C26A C44A, the self-cleavage was 0.914.
On to C26A C44U, for which the self-cleavage stood at 0.95.
To G25A G76A belongs 0.203; to G25A G76U, 0.3; to C26A G29C, 0.104.
On to G25U A56C, for which the self-cleavage was determined as 0.122.
For the variant G25U A56G, the self-cleavage turned out to be 0.0554.
To G25U A56U belongs 0.249; to G25A G73U, 0.0702; to G25A G73A, 0.0583.
On to G25U G39A, for which the self-cleavage came to 0.0963.
Take G25U G39C: the self-cleavage was 0.0773.
In the case of G25U G39U it was 0.0302; in that of G25A G35C, 0.0627.
To G25A G35U belongs 0.135; to C26A C66G, 1.15.
For the variant G25C G39C, the self-cleavage worked out at 0.
To G25C G39U belongs 0.0978; to G25C G39A, 0.119; to G25U G40A, 0.111.
Consider G25C C86A, for which the self-cleavage amounted to 0.128.
Regarding G25C C86U, the self-cleavage was 0.104.
To G25C C26U belongs 0; to C26A G40C, 0.601.
In the case of G25A C66U it was 0.338; in that of C26A A77U, 0.597; in that of C26A A77C, 0.266.
As to G25A C48G, the self-cleavage turned out to be 0.122.
To G25A C48A belongs 0.491.
To G25A G54A belongs 0.242.
In the case of G25A G54U it was 0.202.
Consider G25U C33G, for which the self-cleavage amounted to 0.119.
To G25C G31C belongs 0.0978.
On to G25C U46C, for which the self-cleavage is 0.0875.
To G25C U46G belongs 0; to G25C G67A, 0.123; to G25C G67U, 0.
In the case of G25C G67C, the self-cleavage amounted to 0.0415.

The values are drawn from the RNAGym collection of RNA variant scans (doi:10.7554/elife.80360).
